Test [1] deals with T1, STEAP2 endogenously expressed on C4-2 cells (human, UniProt Q8NFT2 1-490).
T1 sequence (looked up): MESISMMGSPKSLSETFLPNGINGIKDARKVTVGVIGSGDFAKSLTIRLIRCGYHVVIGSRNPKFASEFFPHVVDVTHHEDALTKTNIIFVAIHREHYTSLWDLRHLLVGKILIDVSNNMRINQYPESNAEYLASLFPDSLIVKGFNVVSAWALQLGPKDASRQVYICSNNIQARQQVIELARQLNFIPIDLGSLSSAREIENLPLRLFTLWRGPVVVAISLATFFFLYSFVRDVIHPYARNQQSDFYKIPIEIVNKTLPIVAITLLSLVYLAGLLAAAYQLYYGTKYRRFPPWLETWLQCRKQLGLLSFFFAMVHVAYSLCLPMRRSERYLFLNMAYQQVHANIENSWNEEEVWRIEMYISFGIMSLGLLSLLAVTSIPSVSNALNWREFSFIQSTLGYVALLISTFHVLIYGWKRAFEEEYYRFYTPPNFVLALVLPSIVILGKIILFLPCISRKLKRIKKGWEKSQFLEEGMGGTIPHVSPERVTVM
Kind of test: cell-based or functional assay.

The test system of test [2] is STEAP2 positive C4-2 prostate cancer xenografts. The test can be described thus: In vivo efficacy of anti-STEAP2 ADCs in C4-2 prostate cancer xenografts in SCID mice. Further details: species or system mouse. As to conditions: single dose 2.5 mg/kg via tail vein; end of study. How it is done:
To determine the in vivo efficacy of anti-STEAP2 antibodies conjugated to tubulysins, studies were performed in immunocompromised mice bearing STEAP2 positive C4-2 prostate cancer xenografts.
For the assay, 7.5×10^6 C4-2 cells (ATCC, Cat #CRL-3314), which endogenously express STEAP2, were suspended in Matrigel (BD Biosciences, Cat #354234) and implanted subcutaneously into the left flank of male CB17 SCID mice (Taconic, Hudson NY). Once tumors had reached an average volume of 220 mm^3 (around Day 15), mice were randomized into groups of 7 and given a single dose of either anti-STEAP2 conjugated antibodies (anti-STEAP2-LP3, anti-STEAP2-LP4, anti-STEAP2-MMAE), isotype control conjugated antibody, or vehicle at 2.5 mg/kg via tail vein injection. Tumors were measured with calipers twice a week until the average size of the vehicle group reached 1500 mm^3. Tumor size was calculated using the formula (length×width^2)/2 and the average tumor size+/−SEM was then calculated. Tumor growth inhibition was calculated according to the following formula: (1−((Tfinal−Tinitial)/(Cfinal−Cinitial)))*100, where treated group (T) and control group (C) represent the mean tumor mass on the day the vehicle group reached 1500 mm^3.

Test [3] has as its system CTG-2440 prostate cancer PDX. Kind of test: Efficacy of STEAP2-Tubulysin ADC in CTG-2440 PDX prostate cancer model in NOG mice. The format is in vivo, mouse. The procedure: (§1) Prostate cancer Patient-Derived Xenograft (PDX) tumor fragments of either CTG-2440 or CTG-2441 were implanted subcutaneously into the flank of male NOG mice. Once the tumor volumes reached approximately 200 mm^3, mice were randomized into groups of eight and were treated according to the schedule shown in Table 16 below. Tumor growth was monitored for 60 days post-implantation.
(§2) The prostate cancer models were derived from the bone metastases of patients with metastatic castrate resistant prostate cancer (mCRPC). STEAP2 expression was confirmed by RNA sequencing data and RNA in situ hybridization.

In test [4] the test system is CTG-2441 prostate cancer PDX. The test can be described thus: Efficacy of STEAP2-Tubulysin ADC in CTG-2441 PDX prostate cancer model in NOG mice. The format is in vivo, mouse. How it is done:
as §1, §2

Test [5] addresses T2, human full length PRLR (accession #NP_000940.1) expressed on HCT15/PRLR cells (human, UniProt P16471 25-622).
T2 sequence (looked up): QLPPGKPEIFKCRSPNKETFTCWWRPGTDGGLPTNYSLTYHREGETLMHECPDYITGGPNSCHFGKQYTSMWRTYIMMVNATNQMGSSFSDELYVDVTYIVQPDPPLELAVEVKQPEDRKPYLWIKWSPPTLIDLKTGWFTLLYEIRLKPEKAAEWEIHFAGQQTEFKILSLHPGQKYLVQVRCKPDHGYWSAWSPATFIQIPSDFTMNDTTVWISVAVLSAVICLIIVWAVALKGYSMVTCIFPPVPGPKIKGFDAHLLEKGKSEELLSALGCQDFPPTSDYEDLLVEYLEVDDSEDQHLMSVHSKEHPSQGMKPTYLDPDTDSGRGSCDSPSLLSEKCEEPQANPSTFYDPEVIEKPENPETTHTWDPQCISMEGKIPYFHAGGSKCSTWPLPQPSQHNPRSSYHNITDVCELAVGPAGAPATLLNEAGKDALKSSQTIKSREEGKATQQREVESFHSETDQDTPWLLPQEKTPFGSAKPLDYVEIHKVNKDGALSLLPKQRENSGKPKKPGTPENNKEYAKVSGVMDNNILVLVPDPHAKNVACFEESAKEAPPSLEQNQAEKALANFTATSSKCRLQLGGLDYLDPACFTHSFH
Kind of test: cell-based or functional assay.

[6] abbreviates: 1.86 mg/kg QW × 1, total payload dose 40 ug/kg.
Setting [7] is: 1.86 mg/kg QW × 3, total payload dose 120 ug/kg.
The mark [8] stands for this setting: 3.72 mg/kg QW × 3, total payload dose 240 ug/kg.
Where [9] appears, read: 1.82 mg/kg QW × 1, total payload dose 40 ug/kg.
Setting [10] is: 1.82 mg/kg QW × 3, total payload dose 120 ug/kg.
Setting [11] is: 3.64 mg/kg QW × 3, total payload dose 240 ug/kg.

B1: Anti-STEAP2 N297Q Ab-LP4 (antibody, V domains shown)
VH: QVQLVESGGGVVQPGRSLRLSCVASGFTISSYGMNWVRQAPGKGLEWVAVISYDGGNKYSVDSVKGRFTISRDNSKNTLYLQMNSLRAEDSAVYYCARGRYFDLWGRGTLVTVSS
VL: DIQMTQSPSTLSASVGDRVTITCRASQSISSWLAWYQQKPGRAPNLLISKASSLKSGVPSRFSGSGSGTEFTLTVSSLQPDDFATYYCQQYYSYSYTFGQGTKLEIK
modifications: N297Q (EU numbering) in the heavy chain constant region; linker-payload LP4 (payload Ve) clicked to azido-PEG3-amine that transglutaminase put on heavy chain glutamines; DAR 3.8 (Table 7)
As for B1, in test [1], the “% kill, C4-2 cells” value was 99% and the “IC50 (nM), cytotoxicity in C4-2 cells (CellTiter-Glo)” value was 0.15 nM.

B2: Anti-STEAP2-LP4 (conjugate)
VH: B1 VH
VL: B1 VL
Turning to B2, the “Average Final Tumor size mm^3 (mean ± SEM)” value in test [2] is recorded as 258 ± 60 mm^3. In addition, in test [2], the “Average Tumor Growth Inhibition (%)” value is reported as 97%. Also, the “Final tumor volume (mm^3) at termination (mean ± SD)” value is given as 179.9 ± 68.5 mm^3 in test [3] (setting [6]); 73.5 ± 53.4 mm^3 in test [3] (setting [7]); 6.0 ± 11.4 mm^3 in test [3] (setting [8]); 171.8 ± 176.1 mm^3 in test [4] (setting [9]); 46.0 ± 15.1 mm^3 in test [4] (setting [10]); 33.5 ± 13.6 mm^3 in test [4] (setting [11]). In addition, the “Tumor growth (mm^3) from start of treatment (mean ± SD)” value is listed as −20.0 ± 65.1 mm^3 in test [3] (setting [6]); −129.3 ± 67.7 mm^3 in test [3] (setting [7]); −196.5 ± 37.1 mm^3 in test [3] (setting [8]); −36.8 ± 167.0 mm^3 in test [4] (setting [9]); −164.0 ± 57.3 mm^3 in test [4] (setting [10]); −179.1 ± 51.3 mm^3 in test [4] (setting [11]).

B3: Anti-STEAP2-LP3 (conjugate)
VH: B1 VH
VL: B1 VL
For the molecule B3, in test [2], the “Average Final Tumor size mm^3 (mean ± SEM)” value is 115 ± 6 mm^3 and the “Average Tumor Growth Inhibition (%)” value came to 108%.

B4: Anti-STEAP2-MMAE (antibody, V domains shown)
VH: B1 VH
VL: B1 VL
modifications: conjugated to MMAE (payload of LP8, reference linker-payload); site of conjugation and DAR not stated
In the case of B4, in test [2], the “Average Final Tumor size mm^3 (mean ± SEM)” value was 475 ± 118 mm^3 and the “Average Tumor Growth Inhibition (%)” value was found to be 81%. Moreover, in test [1], the “% kill, C4-2 cells” value worked out at 99% and the “IC50 (nM), cytotoxicity in C4-2 cells (CellTiter-Glo)” value came out at 0.53 nM.

B5: Anti-PRLR N297Q Ab-LP3 (antibody, V domains shown)
VH: QVQLVESGGGVVQPGRSLRLSCGASGFTFRNYGMQWVRQGPGKGLEWVTLISFDGNDKYYADSVKGRFTISRDNSKNTLFLQMNSLRTEDTAVYYCARGGDFDYWGQGTLVTVSS
VL: DIQMTQSPSSLSASVGDRVTITCRASQDIRKDLGWYQQKPGKAPKRLIYAASSLHSGVPSRFSGSGSGTEFTLTISSLQPEDFATYYCLQHNSYPMYTFGQGTKLEIK
modifications: N297Q (EU numbering) in the heavy chain constant region; linker-payload LP3 (payload IVd) clicked to azido-PEG3-amine that transglutaminase put on heavy chain glutamines; DAR 3.9 (Table 7)
On to B5, for which, in test [5], the “IC50 (nM) on HCT15/PRLR w/ Verapamil (CellTiter-Glo cytotoxicity)” value turned out to be 0.309 nM and the “IC50 (nM) on HCT15/PRLR w/o Verapamil (CellTiter-Glo cytotoxicity)” value is 0.525 nM.

B6: Anti-PRLR N297Q Ab-LP4 (antibody, V domains shown)
VH: B5 VH
VL: B5 VL
modifications: N297Q (EU numbering) in the heavy chain constant region; linker-payload LP4 (payload Ve) clicked to azido-PEG3-amine that transglutaminase put on heavy chain glutamines; DAR 3.9 (Table 7)
For B6, in test [5], the “IC50 (nM) on HCT15/PRLR w/ Verapamil (CellTiter-Glo cytotoxicity)” value turned out to be 0.196 nM and the “IC50 (nM) on HCT15/PRLR w/o Verapamil (CellTiter-Glo cytotoxicity)” value stood at 3.31 nM.
